{"source": "paper PMC4505944", "about": "“The THERMOSENSITIVE MALE STERILE 1 Interacts with the BiPs via DnaJ Domain and Stimulates Their ATPase Enzyme Activities in Arabidopsis” (PLoS ONE, 2015)", "binders": {"B1": {"name": "recombinant TMS1 DnaJ domain with a GST tag (domain or fragment, Arabidopsis thaliana, UniProt Q9SR96 27-80, looked up)", "chain": "DPYKVLGVSKDAKQREIQKAFHKQSLKYHPDKNKDKGAQEKFAEINNAYEILSD", "notes": "DnaJ domain of TMS1 (AtERdj3A), Arabidopsis thaliana, 54 amino acid residues, 27-80 aa in TMS1; Cloned into pGEX4T-1 (EcoRI/XhoI); also called GST-DnaJ; source: E. coli BL21, purified, dialyzed"}}, "key": {"[1]": {"target": "T1, BiP3 without signal peptide, His-tagged (Arabidopsis thaliana, UniProt Q8H1B3 36-675)", "T1 construct": "full-length CDS without the signal peptide; Cloned into pET30a(+) (EcoRI/XhoI); further vector-derived residues between the tag and BiP3 are likely; also called BiP3-His; source: E. coli BL21, purified, dialyzed; not shown: His6, N-terminal, kept", "T1 sequence (Q8H1B3 36-675)": "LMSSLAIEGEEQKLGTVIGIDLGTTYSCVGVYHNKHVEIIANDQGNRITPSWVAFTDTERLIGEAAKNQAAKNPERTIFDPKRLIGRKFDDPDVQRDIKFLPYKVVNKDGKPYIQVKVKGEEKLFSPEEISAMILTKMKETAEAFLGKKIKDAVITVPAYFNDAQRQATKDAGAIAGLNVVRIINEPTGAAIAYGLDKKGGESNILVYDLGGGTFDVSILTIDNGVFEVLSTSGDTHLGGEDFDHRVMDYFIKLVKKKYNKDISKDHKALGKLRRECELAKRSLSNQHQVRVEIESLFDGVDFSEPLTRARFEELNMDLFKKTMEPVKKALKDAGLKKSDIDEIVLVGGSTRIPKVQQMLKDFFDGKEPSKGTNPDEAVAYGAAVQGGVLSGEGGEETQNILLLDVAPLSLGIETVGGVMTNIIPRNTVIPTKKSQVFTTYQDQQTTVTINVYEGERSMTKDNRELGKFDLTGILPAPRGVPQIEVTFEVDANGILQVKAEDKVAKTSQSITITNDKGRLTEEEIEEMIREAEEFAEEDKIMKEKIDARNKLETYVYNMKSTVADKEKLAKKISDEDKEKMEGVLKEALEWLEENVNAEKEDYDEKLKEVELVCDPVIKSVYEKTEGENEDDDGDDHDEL", "test": "pull-down; 30 μg GST fusion or GST on Glutathione Sepharose 4B beads; 30 μg purified BiP1 or BiP3 with 1 mM ATP in 1 mL binding buffer (20 mM Hepes pH 6.8, 100 mM KCl, 5 mM MgCl2, 0.1% NP-40, 2% glycerol, 1 mM DTT, 1 mM EDTA), 4°C, 2 h; anti-His blot", "conditions": "both partners purified"}, "[2]": {"target": "T2, BiP1 without signal peptide, His-tagged (Arabidopsis thaliana, UniProt Q9LKR3 28-669)", "T2 construct": "full-length CDS without the signal peptide; Cloned into pET30a(+) (EcoRI/XhoI); further vector-derived residues between the tag and BiP1 are likely; also called BiP1-His; source: E. coli BL21, purified, dialyzed; not shown: His6, N-terminal, kept", "T2 sequence (Q9LKR3 28-669)": "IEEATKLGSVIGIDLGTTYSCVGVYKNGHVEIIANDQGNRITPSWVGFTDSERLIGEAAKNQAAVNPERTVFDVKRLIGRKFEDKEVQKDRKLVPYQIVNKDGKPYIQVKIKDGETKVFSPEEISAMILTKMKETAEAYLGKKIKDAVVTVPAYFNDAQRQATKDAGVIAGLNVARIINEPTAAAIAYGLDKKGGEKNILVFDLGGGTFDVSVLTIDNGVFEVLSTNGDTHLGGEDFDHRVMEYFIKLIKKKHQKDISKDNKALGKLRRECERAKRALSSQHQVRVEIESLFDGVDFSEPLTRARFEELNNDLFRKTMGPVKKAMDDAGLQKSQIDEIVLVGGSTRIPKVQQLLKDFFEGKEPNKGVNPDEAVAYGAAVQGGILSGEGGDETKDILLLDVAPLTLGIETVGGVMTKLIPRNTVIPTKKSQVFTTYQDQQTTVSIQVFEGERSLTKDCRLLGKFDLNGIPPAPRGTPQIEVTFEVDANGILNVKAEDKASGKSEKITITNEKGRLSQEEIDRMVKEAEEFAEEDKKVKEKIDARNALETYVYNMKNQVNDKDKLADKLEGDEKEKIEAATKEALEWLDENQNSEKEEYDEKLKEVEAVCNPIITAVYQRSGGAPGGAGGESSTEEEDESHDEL", "test": "pull-down; 30 μg GST fusion or GST on Glutathione Sepharose 4B beads; 30 μg purified BiP1 or BiP3 with 1 mM ATP in 1 mL binding buffer (20 mM Hepes pH 6.8, 100 mM KCl, 5 mM MgCl2, 0.1% NP-40, 2% glycerol, 1 mM DTT, 1 mM EDTA), 4°C, 2 h; anti-His blot", "conditions": "both partners purified"}}, "data": [{"binder": "B1", "values": [{"measurement": "binding result", "setting": "[1]", "value": "binds"}, {"measurement": "binding result", "setting": "[2]", "value": "binds"}]}]}
